In patent publication US6406883:

Target: human laminin (immobilized; Gibco BRL) (human) (UniProt P25391)
Test: cell-based or functional assay
[1] = scale: % of values obtained for the wildtype strain

Substance	adherence of FITC-labelled O90R wildtype bacteria to laminin preincubated with recombinant Lmb (100 ug/ml) (% of the initial values)	adherence of FITC-labelled lmb mutant lmb-k1 to immobilized laminin, relative to wildtype strain O90R [1]	adherence of FITC-labelled lmb mutant lmb-k2 to immobilized laminin, relative to wildtype strain O90R [1]
Recombinant Lmb protein harboring six consecutive histidin residues at the C-terminus (amino acid 19-306, expressed from pET21a::lmb in E. coli BL21(DE3))	60	–	–
Lmb on the surface of Streptococcus agalactiae (GBS) wildtype strain O90R	–	25	25
